From patent US20030219846A1, “Assay for activity of the ActRIIB kinase” (Pfizer Inc., priority 2002, published 2003) come the findings set out here.

For data set [1], the target named is T1, his-catActRIIB kinase (Homo sapiens, UniProt Q13705).
T1 construct: His tag
As to the kind of experiment: Autoradiographic kinase assay method (substrate phosphorylation). It counts as biochemical. Conditions: 1 mg/ml target peptide or 2.5 μM MBP, 10 μM ATP, [32P]-ATP, 30 minutes, ambient temperature. The protocol: A 20 μl reaction mixture comprising 2.5 μg/ml his-catActRIIB kinase, 1 mg/ml target peptide or 2.5 μM myelin basic protein (MBP), 10 μM ATP, 10 μCi [^32P]y-ATP (6000 Ci/mmol), 1 mg/ml bovine serum albumin (BSA), and 5 mM sodium orthovanadate in 25 mM HEPES (pH 7.3) was run for 30 minutes at ambient temperature. The reaction was stopped by adding ⅓ volume of 3× Laemmli buffer with β-mercaptoethanol and trace bromphenol blue (188 mM Tris pH 6.8, 3% SDS, 24% glycerol, 25% v/v, β-mercaptoethanol). The stopped reaction was loaded directly onto a 18% polyacrylamide/tris/glycine gel without boiling. The gel was run at about 100 volts to permit proper separation, washed for five minutes in water, and equilibrated for five minutes in semi-dry blotting buffer (48 mM Tris base, 39 mM glycine, 20% methanol, 0.375% SDS). Reaction products were then blotted onto a nitrocellulose filter for 48 minutes at 20 volts in a Bio-Rad semi-dry blotting apparatus and visualized and/or quantitated by autoradiography.

For data set [2], the target named is T1, his-catActRIIB kinase. The experiment in a line: Scintillation method kinase assay (TCA precipitation, filter plate). The class given is biochemical. Conditions: target peptide 176 μM or MBP 2 μM, 10 μM ATP, [33P]-ATP, 80 min, room temperature. Here is the method: A series of reaction mixtures comprising 25 mM HEPES (pH 7.3), 3 mM MgCl2, 1 mM MnCl2, 0.1 mM EDTA, 1 mM DTT, 0.2 mM sodium orthovanadate, 100 μg/ml BSA, 10 μM ATP, 0.25 μCi [^33P]y-ATP, and 16.5 μg/ml his-catActRIIB kinase was run in a total of 100 μl directly in a Durapore (Millipore) filter plate for 80 min at room temperature. The reaction was stopped by addition of an equal volume of ice cold TCA (10% or 25% v/v). After one hour at 4° C., the precipitate was collected under vacuum. The precipitate was washed five times with cold TCA. After drying overnight, scintillant was added to the well and plates counted in a Microbeta 1450 Trilux in the Paralux mode. Different reactions included either the target peptide (176 μM), MBP (2 μM), or no substrate.

A further data set addresses T2, target peptide.
T2 chain: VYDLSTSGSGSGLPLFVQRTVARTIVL

“H2N-Val-Tyr-Asp-Leu-Ser-Thr-Ser-Gly-Ser-Gly-Ser-Gly-Leu-Pro-Leu-Phe-Val-Gln-Arg-Thr-Val-Ala-Arg-Thr-Ile-Val-Leu-COOH (H-VYDLSTSGSGSGLPLFVQRTVARTIVL-OH; not fully specified) [target peptide, 27 amino acid substrate peptide for the ActRIIB kinase assay]”: the “phosphorylation of substrate, labelled band visualized by autoradiography” value with his-catActRIIB kinase [1] is reported as “labelled target peptide”. Besides, the “signal from labelled substrate by scintillation counting” value with his-catActRIIB kinase [2] was “performed very well”.

B1: his-catActRIIB kinase (protein)
chain: YGHVDIHEDPGPPPPSPLVGLKPLQLLEIKARGRFGCVWKAQLMNDFVAVKIFPLQDKQSWQSEREIFSTPGMKHENLLQFIAAEKRGSNLEVELWLITAFHDKGSLTDYLKGNIITWNELCHVAETMSRGLSYLHEDVPWCRGEGHKPSIAHRDFKSKNVLLKSDLTAVLADFGLAVRFEPGKPPGDTHGQVGTRRYMAPEVLEGAINFQRDAFLRIDMYAMGLVLWELVSRCKAADGPVDEYMLPFEEEIGQHPSLEELQEVVVHKKMRPTIKDHWLKHPGLAQLCVTIEECWDHDAEARLSAGCVEERVSLIRRSVNGTTSDCLVSLVTSVTNVDLPPKESSI
In the case of B1, the “phosphorylation of substrate, [32P]ATP autoradiography after gel electrophoresis and blotting” value is “In the reaction mixture comprising MBP, bands were visualized at 18 Kd and 40 Kd, corresponding to labelled MBP and autophosphorylated his-catActRIIB kinase, respectively” with myelin basic protein; “In the reaction mixture comprising target peptide, bands were visualized at 3 Kd and 40 Kd, corresponding to labelled target peptide and autophosphorylated his-catActRIIB kinase, respectively” with target peptide. Besides, the results for the “phosphorylation of substrate, [33P]ATP, TCA precipitation on filter plate, scintillation counting” value with myelin basic protein and with target peptide were “the reaction with MBP unexpectedly yields a negative result” and “the reaction performed very well with the target peptide as a substrate”, respectively.

B2: MBP: Myelin Basic Protein, a commonly used substrate for kinase assays (protein, UniProt P02687 1-169, looked up)
Myelin basic protein: AAQKRPSQRSKYLASASTMDHARHGFLPRHRDTGILDSLGRFFGSDRGAPKRGSGKDGHHAARTTHYGSLPQKAQGHRPQDENPVVHFFKNIVTPRTPPPSQGKGRGLSLSRFSWGAEGQKPGFGYGGRASDYKSAHKGLKGHDAQGTLSKIFKLGGRDSRSGSPMARR
Regarding B2, the “phosphorylation of substrate, labelled band visualized by autoradiography” value in the data set with his-catActRIIB kinase [1] is “labelled MBP”. The “signal from labelled substrate by scintillation counting” value with his-catActRIIB kinase [2] is on record as “negative result”.
